Laboratory results: patent US20260226133A1

B1: hA873-G30S vHH (CD33), NLuc fusion (VHH, part only; not given: NLuc luciferase fusion partner, part only)
VHH, part: QVQLVESGGGVVQPGRSLRLSCVASGYTYSINCMGWFRQAPGKGREGIAAISTGGGTTGVADSVKGRFTISQDNAKNTVYLQMNSLRAEDTAMYYCAARSTYSGYACVYSEVNGYNYRGQGTQVTVSS
B2: hu-077-USC1 vHH (CD22), NLuc fusion (VHH, part only; not given: NLuc luciferase fusion partner, part only)
VHH, part: QVQLQESGPGLVKPSQTLSLTCTVSGGSITTGEFYWNWFRQPPGKGLEWMGAIAASGSTTYSPSFESRTSISRDTSKNQFSLKLSSVTAADTAVYYCGRSFGVAAVTTGQNRGQGTLVTVSS

Key:
CD33 = CD33 (UniProt P20138); assay: Malibu-Glo assay; NLuc fusion supernatant on HL60 cells, control Jurkat cells
CD22 = CD22 (UniProt P20273); assay: Malibu-Glo assay; NLuc fusion supernatant on RAJI cells, control K562 cells
Chain of CD22 (P20273 20-847 limits assumed): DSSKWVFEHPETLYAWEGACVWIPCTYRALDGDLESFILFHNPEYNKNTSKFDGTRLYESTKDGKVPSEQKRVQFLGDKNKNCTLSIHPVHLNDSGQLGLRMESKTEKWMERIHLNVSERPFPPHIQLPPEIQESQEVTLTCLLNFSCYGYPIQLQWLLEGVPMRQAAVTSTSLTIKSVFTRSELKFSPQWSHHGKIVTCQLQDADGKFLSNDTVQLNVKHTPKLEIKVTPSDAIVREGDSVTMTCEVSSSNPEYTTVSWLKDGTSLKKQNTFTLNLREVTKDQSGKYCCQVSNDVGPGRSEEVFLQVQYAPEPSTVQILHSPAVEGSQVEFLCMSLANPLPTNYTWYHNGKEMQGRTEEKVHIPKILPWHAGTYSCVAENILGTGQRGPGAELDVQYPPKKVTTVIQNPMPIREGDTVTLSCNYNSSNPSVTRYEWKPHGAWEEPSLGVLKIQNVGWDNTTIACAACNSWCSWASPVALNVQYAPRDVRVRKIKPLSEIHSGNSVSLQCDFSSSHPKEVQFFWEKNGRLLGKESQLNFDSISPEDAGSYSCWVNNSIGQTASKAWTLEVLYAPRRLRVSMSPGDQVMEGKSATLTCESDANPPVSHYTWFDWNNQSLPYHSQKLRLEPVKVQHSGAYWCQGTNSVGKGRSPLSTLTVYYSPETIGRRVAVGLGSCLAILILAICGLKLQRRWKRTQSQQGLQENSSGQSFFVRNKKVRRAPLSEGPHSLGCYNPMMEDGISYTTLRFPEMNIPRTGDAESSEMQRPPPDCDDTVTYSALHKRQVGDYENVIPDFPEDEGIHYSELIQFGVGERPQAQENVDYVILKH

Chain of CD33 (P20138 18-364 limits assumed): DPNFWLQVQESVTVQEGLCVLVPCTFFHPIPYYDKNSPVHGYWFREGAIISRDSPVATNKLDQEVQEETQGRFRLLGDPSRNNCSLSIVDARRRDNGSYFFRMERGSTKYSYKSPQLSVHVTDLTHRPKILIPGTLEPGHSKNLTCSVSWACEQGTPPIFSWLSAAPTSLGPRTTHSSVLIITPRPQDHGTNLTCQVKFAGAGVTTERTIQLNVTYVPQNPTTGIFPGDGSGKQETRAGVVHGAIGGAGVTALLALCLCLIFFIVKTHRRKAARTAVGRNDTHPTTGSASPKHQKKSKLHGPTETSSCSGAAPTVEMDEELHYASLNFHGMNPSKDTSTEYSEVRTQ

| Fold Change (Luc activity, target cell line over control cell line) (CD33) [fold] | Fold Change (Luc activity, target cell line over control cell line) (CD22) [fold] | Binder |
| --- | --- | --- |
| 17 | – | B1 |
| – | 4.32 | B2 |
